Test results from patent publication US20230270861A1, “Inhibitors of the Artemin Pathway for Treatment of Cancer” (The University of Chicago, priority 2020, published 2023).

Columns and labels:
[1] = cited from earlier work
[2] = tested on: LLC tumor; assay: Tumor growth of LLC tumor-bearing mice treated with IR or anti-PD-L1 plus test agent; type: in vivo, mouse; settings: LLC tumor-bearing B6 mice; for Tumor growth: influence on the therapeutic effect of IR and PD-L1 blockade: agent combined with 20 Gy IR or anti-PD-L1
Protocol: (§1) Tumor models and treatments. 1×10^6 MC38, LLC, or B16-SIY tumor cells were subcutaneously injected into the flank of mice. On day 10 after tumor inoculation, tumors were either irradiated with one dose of 20 Gy or mice received sham treatment. For anti-PD-L1 treatment experiments, 200 μg anti-PD-L1 (10F.9G2) or isotype control was given by i.p. every three days for a total of four times starting on day 10 after tumor inoculation. For type I IFN blockade experiments, 200 μg anti-IFNAR1 were intratumorally injected on days 0 and 2 after irradiation. For CD4 or CD8 T cell depletion experiments, 200 μg anti-CD4 or anti-CD8 mAb was delivered four times by i.p. injection every 3 days starting 1 day before therapies. Artemin-neutralizing antibody was delivered i.t. at 1 μg/mouse starting on day of irradiation, every 2 days for 7 doses. For Ter-cell depletion, anti-ter119 was injected i.p. at 20 μg/mouse every 2 days for 4 doses. For Ter-cell or artemin treatment groups, mice were administered 1×10^7 purified Ter cells i.v. every other day for a total of three doses, or mice were treated with 0.5 μg/mouse artemin i.t. every other day starting on day 0 of therapies throughout the studies. For EPO treatment groups, mice were treated with 20 U/mouse EPO i.v. every other day throughout the studies, starting on day 0 of the therapies. IFN-γ was administered through intrasplenic injection on day 15 post tumor implantation at 2 μg/mouse for 1 dose. LOXO-292 was administered by oral gavaging at 100 μg/mouse/day throughout the entire studies, starting on day 0 of the therapies. Spleens were harvested on day 20 or at indicated times post-inoculation for analysis of spleen size or splenic cells. Tumor size was monitored and calculated with the formula for area (length×width).

[3] = tested on: LLC tumor; assay: Spontaneous lung metastasis (number of lung nodules) in LLC tumor-bearing mice; type: in vivo, mouse; settings: murine LLC model; combined with IR or anti-PD-L1
Protocol: FIG. 55. Number of lung nodules in LLC tumor-bearing mice at the end of tumor growth measurement: anti-PD-L1 treatment. B6 mice were inoculated with LLC cells. On day 10 post inoculation, tumor-bearing mice were treated with anti-PD-L1. Splenectomy was performed 1 day before treatments. Representative data are shown from two or three experiments conducted with 3-5 mice or samples per group. Data are represented as mean±SD. **p<0.01 and ***p<0.001.
FIGS. 62A-62B. Number of lung modules. B6 mice were inoculated with LLC cells. On day 10 post inoculation, tumor-bearing mice were treated with either IR (FIG. 62A) or anti-PD-L1 (FIG. 62B) plus LOXO-292. Splenectomy was performed 1 day before treatments. […] Representative data are shown from two or three experiments conducted with 3-5 mice or samples per group. Data are represented as mean±SD. *p<0.05, **p<0.01, and ***p<0.001.
Tumor models and treatments. 1×10^6 MC38, LLC, or B16-SIY tumor cells were subcutaneously injected into the flank of mice. On day 10 after tumor inoculation, tumors were either irradiated with one dose of 20 Gy or mice received sham treatment. For anti-PD-L1 treatment experiments, 200 μg anti-PD-L1 (10F.9G2) or isotype control was given by i.p. every three days for a total of four times starting on day 10 after tumor inoculation. […] Tumor size was monitored and calculated with the formula for area (length×width).

[4] = tested on: p-AKT and p-ERK in LLC cells; assay: Western blot of p-AKT and p-ERK in LLC cells treated with ARTN and LOXO-292; type: cell-based, mouse; settings: 100 ng/mL ARTN and 1 μg/mL LOXO-292
Protocol: FIGS. 61A-61C. Tumor growth of LLC tumor-bearing mice treated with LOXO-292 and either IR (FIG. 61A) or anti-PD-L1 (FIG. 61B). (FIG. 61C) p-AKT and p-ERK in LLC cells treated with 100 ng/mL ARTN and 1 μg/mL LOXO-292 were detected by western blot. Representative data are shown from two or three experiments. Data are represented as mean±SD. *p<0.05, **p<0.01, and ***p<0.001.
Western Blot Analysis. Whole-cell protein was extracted with Triton-X100 buffer (150 mM sodium chloride, 50 mM Tris, 1% Triton-X100; pH 8.0) with proteinase inhibitors (Thermo Scientific®). Immuno-blotting analyses were performed as previously described (Hou, Y., Liang, H., Rao, E., Zheng, W., Huang, X., Deng, L., Zhang, Y., Yu, X., Xu, M., Mauceri, H., et al. (2018). Non-canonical NF-kappaB Antagonizes STING Sensor-Mediated DNA Sensing in Radiotherapy. Immunity 49, 490-503 e494). The amount of loaded protein was normalized to GAPDH (60004-1-Ig, Proteintech Group) or actin (8226, Abcam).

[5] = tested on: Ter-cells; assay: Spleen size, splenocytes and splenic Ter-cells by flow cytometry; type: in vivo, mouse
Protocol: as §1
(§2) Flow Cytometry. […] Single cell suspensions were blocked with anti-FcR (2.4G2, BioXcell) and then stained with fluorescence-labeled antibodies. Flow cytometry was performed on BD LSR Fortessa at The University of Chicago core facility and data were analyzed with FlowJo software.

[6] = tested on: artemin; assay: Artemin levels in serum (ELISA) and artemin mRNA in spleen (qPCR); type: in vivo, mouse; settings: LLC tumor-bearing mice treated with IR or anti-PD-L1 plus EPO i.v.
Protocol: ELISA. Tumor tissues were homogenized in PBS with protease inhibitor followed by the addition of Triton X-100. Serum was collected on day 20 post-tumor inoculation or at indicated times. The concentration of artemin or TGF-β was measured with artemin ELISA Kit (E03A0032 for mouse and E01A0032 for human, BlueGene Biotechnology), or TGF-β1 Mouse ELISA Kit (BMS608-4, Invitrogen).
Real-time PCR assay. mRNA from tumor cells or splenocytes was isolated using TRIzol according to the manufacturer's instructions (Invitrogen). cDNA was synthesized from pd(N)6-primed mRNA reverse transcription using M-MLV superscript reverse transcriptase. Real-time PCR kits (SYBR Premix Ex Taq™, DRR041A) were purchased from Takara Bio Inc. PCR was performed using a CFX96 (Bio-Rad). mRNA specific for the housekeeping gene GAPDH was measured and used as an internal control. The primers for artemin were 5′-TACTGCATTGTCCCACTGCCTCC-3′ (SEQ ID NO: 1) for the upstream primer (UP) and 5′-TCGCAGGGTTCTTTCGCTGCACA-3′ (SEQ ID NO: 2) for the downstream primer (DP); GAPDH: 5′-AGACCAGCCTGAGCAAAAGA-3′ (SEQ ID NO: 3) for UP and 5′-CTAGGCTGGAGTGCAGTGGT-3′ (SEQ ID NO: 4) for DP.

[7] = tested on: Ter-cells; assay: Splenic cells by flow cytometry after intrasplenic IFN-γ injection in LLC-bearing mice; type: in vivo, mouse
Protocol: FIG. 27. Apoptosis of splenic Ter-cells as analyzed by flow cytometry at indicated times post-injection. B6 mice were inoculated with LLC on day 0 and recombinant mouse IFN-γ was administered through intrasplenic injection on day 15. Representative data are shown from two or three experiments conducted with 3-5 mice per group. Data are represented as mean±SD. *p<0.05, **p<0.01, and ***p<0.001.
FIG. 28A-28C. Mechanism of IR-induced Ter-cell reduction in spleen. (FIG. 28A) Apoptosis of splenic CD45^+ immune cells, MDSCs, and CD8^+ T cells as analyzed by flow cytometry at indicated time post IFN-γ intrasplenic injection. (FIG. 28B) The percentage of CD8^+ T cells were analyzed by flow cytometry at indicated time post IFN-γ intrasplenic injection. (FIG. 28C) […] expression on splenic Ter-cells on day 3 post IFN-γ intrasplenic injection. Representative data are shown from two or three experiments conducted with 3-5 mice or samples per group. Data are represented as mean±SD. *p<0.05, **p<0.01, and ***p<0.001.
as §1, with “IFN-γ was administered through intrasplenic injection on day 15 post tumor implantation at 2 μg/mouse for 1 dose. LOXO-292 was administered by oral gavaging at 100 μg/mouse/day throughout the entire studies, starting on day 0 of the therapies. Spleens were harvested on day 20 or at indicated times post-inoculation for analysis of spleen size or splenic cells.” left out
as §2

[8] = LLC tumor-bearing mice, intra-splenic injection

In the case of `CO[C@]1(C(=O)N[C@@H](C)c2ccc(-n3cc(F)cn3)nc2)CC[C@H](c2nc(C)cc(Nc3cc(C)[nH]n3)n2)CC1` [BLU-677], the “Outcomes for patients with RET fusion-positive cancers” value [1] is given as “improved outcomes”.

For `COc1ccc(CN2C3CC2CN(c2ccc(-c4cc(OCC(C)(C)O)cn5ncc(C#N)c45)cn2)C3)cn1` [LOXO-292], the “Tumor growth: therapeutic effect of IR and PD-L1 blockade in the context of EPO treatment” value ([2]; IR or anti-PD-L1 plus EPO plus agent) was “restored the therapeutic effects of IR and PD-L1 blockade”, the “Tumor growth: influence on the therapeutic effect of IR and PD-L1 blockade” value [2] was “enhanced the effects of IR and PD-L1 blockade” and the “Spontaneous lung metastasis: influence on the effects of IR and PD-L1 blockade” value [3] was “promoted the effects of IR and PD-L1 blockade”. For the same molecule, the “Artemin-induced activation of downstream signaling (p-AKT, p-ERK)” value [4] was “inhibited artemin-induced activation of downstream signaling” and the “Outcomes for patients with RET fusion-positive cancers” value [1] was “improved outcomes”.

In the case of IFN-α, the “Ter-cell accumulation in spleen after intra-tumor injection” value ([5]; WT mice bearing LLC or B16-SIY tumors, i.t.) is reported as “reduced Ter-cell accumulation”.

For “rhEPO: Recombinant human erythropoietin used for the treatment of anemia in cancer patients”, the “Survival benefit in cancer patients treated by RT” value ([1]; several clinical trials) is listed as “detrimental effects”.

B1: EPO: recombinant erythropoietin (959-ME) from R&D Systems (protein, UniProt P07321 27-192, looked up)
Erythropoietin: APPRLICDSRVLERYILEAKEAENVTMGCAEGPRLSENITVPDTKVNFYAWKRMEVEEQAIEVWQGLSLLSEAILQAQALLANSSQPPETLQLHIDKAISGLRSLTSLLRVLGAQKELMSPPDTTPPAPLRTLTVDTFCKLFRVYANFLRGKLKLYTGEVCRRGDR
For B1, the “Tumor growth: influence on the therapeutic effect of IR and PD-L1 blockade” value [2] was “inhibited the therapeutic effect of both IR and PD-L1 blockade”, the “Ter-cell accumulation under IR or PD-L1 blockade” value ([5]; LLC tumor-bearing mice treated with IR or anti-PD-L1 plus EPO i.v.) was “diminished the effects of IR and PD-L1 blockade” and the “Spleen size and Ter-cell accumulation in naive mice” value ([5]; naive B6 mice, i.v. and s.c. routes) was “increased spleen size and Ter-cell accumulation”. For the same molecule, the “Level of secreted artemin in serum under IR or PD-L1 blockade” value [6] was “diminished the effects of IR and PD-L1 blockade”.

B2: IFN-γ: Recombinant mouse IFN-γ (315-05) from Peprotech, intrasplenic injection (protein, UniProt P01580 23-155, looked up)
Interferon gamma: HGTVIESLESLNNYFNSSGIDVEEKSLFLDIWRNWQKDGDMKILQSQIISFYLRLFEVLKDNQAISNNISVIESHLITTFFSNSKAKKDAFMSIAKFEVNNPQVQRQAFNELIRVVHQLLPESSLRKRKRSRC
With B2 the “Abundance of CD8+ T cells in spleen” value [7, 8] was “restored the abundance”, the “Apoptosis of immune cells, including MDSCs and CD8+ T cells” value [7, 8] was “did not change apoptosis levels” and the “Apoptosis of splenic Ter-cells” value ([7]; LLC tumor-bearing mice, intra-splenic injection, 3 days after treatment) was “increased apoptosis of Ter-cells”. For the same molecule, the “MHC I expression on Ter-cells” value ([7]; day 3 post intrasplenic injection) was “enhanced the MHC I expression”.
